# Assay results as given in publication PMC5041007, “AglM and VNG1048G, Two Haloarchaeal UDP-Glucose Dehydrogenases, Show Different Salt-Related Behaviors” (Life, 2016).
# B1: Haloferax volcanii AglM, C-terminally polyhistidine-tagged (enzyme, UniProt D4GYH5 1-430, looked up)
# chain: MELSIIGSGYVGTTIAACFAELGHDVVNVDIDEDIVASLNDGQAPIHEPGLAELVERYAGDRLRATTDYDEILDTDATFLALPTPSTDDGSIDLGAMKTAATSLGETLARKDDSHLVVTKSTVVPRTTVDVIGPRIEEASGKRVGDGLDIAMNPEFLREGTAVDDFLSPDKIVLGAQTDRAYETLAEIFAPLVERAGNPPVVKTGISEAEMIKYANNAFLASKISLANDLANICKVFGVDSAEVLESIGLDSRIGSAFLGAGLGWGGSCFPKDTAAIIAAARAQGYEPRLLQAAVDVNDGQPERMLDLLRERFDLDGKRVAVLGLAFKPGTDDIRKSRAILLIQALLDAGADVVGYDPVATENMRERFPDIDYADSAADALANADAALVATDWDEFAALDDEFDAMRERIVIDGRRIVTRREGLDYESLV
# notes: AglM, UDP-glucose dehydrogenase of Haloferax volcanii, 430 residues; gene amplified from genomic DNA with primers at the start and end of the gene; Calculated mass of the His-tagged chain close to 47 kDa; also called His-tagged AglM; UDP-glucose dehydrogenase; source: Hfx. volcanii cells transformed with pHis-AglM, purified (Ni-NTA, then size-exclusion chromatography); not shown: polyhistidine, …
# Target: the molecule itself
# Assay: SEC; Hi-Load Superdex 200 16/60 directly after Ni-NTA chromatography; 2 M NaCl, 5 mM MgCl2, 50 mM Tris-HCl, pH 9.2; 1 mL/min; masses from a calibration curve of marker proteins (12.4-200 kDa)
protein,measurement,value
B1,stoichiometry N,12
